Measurements reported in publication PMC7367873, “Dissecting the sequence determinants for dephosphorylation by the catalytic subunits of phosphatases PP1 and PP2A” (Nature Communications, 2020).

B1: ATP5A1 (protein, UniProt P25705 44-553, looked up)
ATP synthase F(1) complex …: QKTGTAEMSSILEERILGADTSVDLEETGRVLSIGDGIARVHGLRNVQAEEMVEFSSGLKGMSLNLEPDNVGVVVFGNDKLIKEGDIVKRTGAIVDVPVGEELLGRVVDALGNAIDGKGPIGSKTRRRVGLKAPGIIPRISVREPMQTGIKAVDSLVPIGRGQRELIIGDRQTGKTSIAIDTIINQKRFNDGSDEKKKLYCIYVAIGQKRSTVAQLVKRLTDADAMKYTIVVSATASDAAPLQYLAPYSGCSMGEYFRDNGKHALIIYDDLSKQAVAYRQMSLLLRRPPGREAYPGDVFYLHSRLLERAAKMNDAFGGGSLTALPVIETQAGDVSAYIPTNVISITDGQIFLETELFYKGIRPAINVGLSVSRVGSAAQTRAMKQVAGTMKLELAQYREVAAFAQFGSDLDAATQQLLSRGVRLTELLKQGQYSPMAIEEQVAVIYAGVRGYLDKLEPSKITKFENAFLSHVVSQHQALLGTIRADGKISEQSDAKLKEIVTNFLAGFEA
B2: SF3B1 (protein, UniProt O75533 1-1304, looked up)
Splicing factor 3B subunit 1: MAKIAKTHEDIEAQIREIQGKKAALDEAQGVGLDSTGYYDQEIYGGSDSRFAGYVTSIAATELEDDDDDYSSSTSLLGQKKPGYHAPVALLNDIPQSTEQYDPFAEHRPPKIADREDEYKKHRRTMIISPERLDPFADGGKTPDPKMNARTYMDVMREQHLTKEEREIRQQLAEKAKAGELKVVNGAAASQPPSKRKRRWDQTADQTPGATPKKLSSWDQAETPGHTPSLRWDETPGRAKGSETPGATPGSKIWDPTPSHTPAGAATPGRGDTPGHATPGHGGATSSARKNRWDETPKTERDTPGHGSGWAETPRTDRGGDSIGETPTPGASKRKSRWDETPASQMGGSTPVLTPGKTPIGTPAMNMATPTPGHIMSMTPEQLQAWRWEREIDERNRPLSDEELDAMFPEGYKVLPPPAGYVPIRTPARKLTATPTPLGGMTGFHMQTEDRTMKSVNDQPSGNLPFLKPDDIQYFDKLLVDVDESTLSPEEQKERKIMKLLLKIKNGTPPMRKAALRQITDKAREFGAGPLFNQILPLLMSPTLEDQERHLLVKVIDRILYKLDDLVRPYVHKILVVIEPLLIDEDYYARVEGREIISNLAKAAGLATMISTMRPDIDNMDEYVRNTTARAFAVVASALGIPSLLPFLKAVCKSKKSWQARHTGIKIVQQIAILMGCAILPHLRSLVEIIEHGLVDEQQKVRTISALAIAALAEAATPYGIESFDSVLKPLWKGIRQHRGKGLAAFLKAIGYLIPLMDAEYANYYTREVMLILIREFQSPDEEMKKIVLKVVKQCCGTDGVEANYIKTEILPPFFKHFWQHRMALDRRNYRQLVDTTVELANKVGAAEIISRIVDDLKDEAEQYRKMVMETIEKIMGNLGAADIDHKLEEQLIDGILYAFQEQTTEDSVMLNGFGTVVNALGKRVKPYLPQICGTVLWRLNNKSAKVRQQAADLISRTAVVMKTCQEEKLMGHLGVVLYEYLGEEYPEVLGSILGALKAIVNVIGMHKMTPPIKDLLPRLTPILKNRHEKVQENCIDLVGRIADRGAEYVSAREWMRICFELLELLKAHKKAIRRATVNTFGYIAKAIGPHDVLATLLNNLKVQERQNRVCTTVAIAIVAETCSPFTVLPALMNEYRVPELNVQNGVLKSLSFLFEYIGEMGKDYIYAVTPLLEDALMDRDLVHRQTASAVVQHMSLGVYGFGCEDSLNHLLNYVWPNVFETSPHVIQAVMGALEGLRVAIGPCRMLQYCLQGLFHPARKVRDVYWKIYNSIYIGSQDALIAHYPRIYNDDKNTYIRYELDYIL
B3: GTF3C3 (protein, UniProt Q9Y5Q9 2-886, looked up)
General transcription factor …: SGFSPELIDYLEGKISFEEFERRREERKTREKKSLQEKGKLSAEENPDDSEVPSSSGINSTKSQDKDVNEGETSDGVRKSVHKVFASMLGENEDDEEEEEEEEEEEEEEETPEQPTAGDVFVLEMVLNRETKKMMKEKRPRSKLPRALRGLMGEANIRFARGEREEAILMCMEIIRQAPLAYEPFSTLAMIYEDQGDMEKSLQFELIAAHLNPSDTEEWVRLAEMSLEQDNIKQAIFCYTKALKYEPTNVRYLWERSSLYEQMGDHKMAMDGYRRILNLLSPSDGERFMQLARDMAKSYYEANDVTSAINIIDEAFSKHQGLVSMEDVNIAAELYISNKQYDKALEIITDFSGIVLEKKTSEEGTSEENKAPENVTCTIPDGVPIDITVKLMVCLVHLNILEPLNPLLTTLVEQNPEDMGDLYLDVAEAFLDVGEYNSALPLLSALVCSERYNLAVVWLRHAECLKALGYMERAAESYGKVVDLAPLHLDARISLSTLQQQLGQPEKALEALEPMYDPDTLAQDANAAQQELKLLLHRSTLLFSQGKMYGYVDTLLTMLAMLLKVAMNRAQVCLISSSKSGERHLYLIKVSRDKISDSNDQESANCDAKAIFAVLTSVLTKDDWWNLLLKAIYSLCDLSRFQEAELLVDSSLEYYSFYDDRQKRKELEYFGLSAAILDKNFRKAYNYIRIMVMENVNKPQLWNIFNQVTMHSQDVRHHRFCLRLMLKNPENHALCVLNGHNAFVSGSFKHALGQYVQAFRTHPDEPLYSFCIGLTFIHMASQKYVLRRHALIVQGFSFLNRYLSLRGPCQESFYNLGRGLHQLGLIHLAIHYYQKALELPPLVVEGIELDQLDLRRDIAYNLSLIYQSSGNTGMAQTLLYTYCSI
B4: SAMD4B (protein, UniProt Q5PRF9 1-694, looked up)
Protein Smaug homolog 2: MMFRDQVGILAGWFKGWNECEQTVALLSLLKRVTRTQARFLQLCLEHSLADCNDIHLLESEANSAAIVSQWQQESKEKVVSLLLSHLPLLQPGNTEAKSEYMRLLQKVLAYSIESNAFIEESRQLLSYALIHPATTLEDRNALALWLSHLEERLASGFRSRPEPSYHSRQGSDEWGGPAELGPGEAGPGWQDKPPRENGHVPFHPSSSVPPAINSIGSNANTGLPCQIHPSPLKRSMSLIPTSPQVPGEWPSPEELGARAAFTTPDHAPLSPQSSVASSGSEQTEEQGSSRNTFQEDGSGMKDVPSWLKSLRLHKYAALFSQMSYEEMMTLTEQHLESQNVTKGARHKIALSIQKLRERQSVLKSLEKDVLEGGNLRNALQELQQIIITPIKAYSVLQATVAAATTTPTAKDGAPGEPPLPGAEPPLAHPGTDKGTEAKDPPAVENYPPPPAPAPTDGSEPAPAPVADGDIPSQFTRVMGKVCTQLLVSRPDEENITSYLQLIEKCLTHEAFTETQKKRLLSWKQQVLKLLRTFPRKAALEMQNYRQQKGWAFGSNSLPIAGSVGMGVARRTQRQFPMPPRALPPGRMGLLSPSGIGGVSPRHALTSPSLGGQGRQNLWFANPGGSNSMPSQSRSSVQRTHSLPVHSSPQAILMFPPDCPVPGPDLEINPTLESLCLSMTEHALGDGTDKTSTI
B5: HNRNPA2B1 (protein, UniProt P22626 1-353, looked up)
Heterogeneous nuclear …: MEKTLETVPLERKKREKEQFRKLFIGGLSFETTEESLRNYYEQWGKLTDCVVMRDPASKRSRGFGFVTFSSMAEVDAAMAARPHSIDGRVVEPKRAVAREESGKPGAHVTVKKLFVGGIKEDTEEHHLRDYFEEYGKIDTIEIITDRQSGKKRGFGFVTFDDHDPVDKIVLQKYHTINGHNAEVRKALSRQEMQEVQSSRSGRGGNFGFGDSRGGGGNFGPGPGSNFRGGSDGYGSGRGFGDGYNGYGGGPGGGNFGGSPGYGGGRGGYGGGGPGYGNQGGGYGGGYDNYGGGNYGSGNYNDFGNYNQQPSNYGPMKSGNFGGSRNMGGPYGGGNYGPGGSGGSGGYGGRSRY
B6: EWSR1 (protein, UniProt Q01844 1-656, looked up)
RNA-binding protein EWS: MASTDYSTYSQAAAQQGYSAYTAQPTQGYAQTTQAYGQQSYGTYGQPTDVSYTQAQTTATYGQTAYATSYGQPPTGYTTPTAPQAYSQPVQGYGTGAYDTTTATVTTTQASYAAQSAYGTQPAYPAYGQQPAATAPTRPQDGNKPTETSQPQSSTGGYNQPSLGYGQSNYSYPQVPGSYPMQPVTAPPSYPPTSYSSTQPTSYDQSSYSQQNTYGQPSSYGQQSSYGQQSSYGQQPPTSYPPQTGSYSQAPSQYSQQSSSYGQQSSFRQDHPSSMGVYGQESGGFSGPGENRSMSGPDNRGRGRGGFDRGGMSRGGRGGGRGGMGSAGERGGFNKPGGPMDEGPDLDLGPPVDPDEDSDNSAIYVQGLNDSVTLDDLADFFKQCGVVKMNKRTGQPMIHIYLDKETGKPKGDATVSYEDPPTAKAAVEWFDGKDFQGSKLKVSLARKKPPMNSMRGGLPPREGRGMPPPLRGGPGGPGGPGGPMGRMGGRGGDRGGFPPRGPRGSRGNPSGGGNVQHRAGDWQCPNPGCGNQNFAWRTECNQCKAPKPEGFLPPPFPPPGGDRGRGGPGGMRGGRGGLMDRGGPGGMFRGGRGGDRGGFRGGRGMDRGGFGGGRRGGPGGPPGPLMEQMGGRRGGRGGPGKMDKGEHRQERRDRPY
B7: RALGPS2 (protein, UniProt Q86X27 1-583, looked up)
Ras-specific guanine …: MDLMNGQASSVNIAATASEKSSSSESLSDKGSELKKSFDAVVFDVLKVTPEEYAGQITLMDVPVFKAIQPDELSSCGWNKKEKYSSAPNAVAFTRRFNHVSFWVVREILHAQTLKIRAEVLSHYIKTAKKLYELNNLHALMAVVSGLQSAPIFRLTKTWALLSRKDKTTFEKLEYVMSKEDNYKRLRDYISSLKMTPCIPYLGIYLSDLTYIDSAYPSTGSILENEQRSNLMNNILRIISDLQQSCEYDIPMLPHVQKYLNSVQYIEELQKFVEDDNYKLSLKIEPGTSTPRSAASREDLVGPEVGASPQSGRKSVAAEGALLPQTPPSPRNLIPHGHRKCHSLGYNFIHKMNTAEFKSATFPNAGPRHLLDDSVMEPHAPSRGQAESSTLSSGISIGSSDGSELSEETSWPAFERNRLYHSLGPVTRVARNGYRSHMKASSSAESEDLAVHLYPGAVTIQGVLRRKTLLKEGKKPTVASWTKYWAALCGTQLFYYAAKSLKATERKHFKSTSNKNVSVIGWMVMMADDPEHPDLFLLTDSEKGNSYKFQAGNRMNAMLWFKHLSAACQSNKQQVPTNLMTFE
B8: SERPINH1 (protein, UniProt P50454 19-418, looked up)
Serpin H1: AEVKKPAAAAAPGTAEKLSPKAATLAERSAGLAFSLYQAMAKDQAVENILVSPVVVASSLGLVSLGGKATTASQAKAVLSAEQLRDEEVHAGLGELLRSLSNSTARNVTWKLGSRLYGPSSVSFADDFVRSSKQHYNCEHSKINFRDKRSALQSINEWAAQTTDGKLPEVTKDVERTDGALLVNAMFFKPHWDEKFHHKMVDNRGFMVTRSYTVGVMMMHRTGLYNYYDDEKEKLQIVEMPLAHKLSSLIILMPHHVEPLERLEKLLTKEQLKIWMGKMQKKAVAISLPKGVVEVTHDLQKHLAGLGLTEAIDKNKADLSRMSGKKDLYLASVFHATAFELDTDGNPFDQDIYGREELRSPKLFYADHPFIFLVRDTQSGSLLFIGRLVRPKGDKMRDEL

Test system: GFP-14-3-3β
Experiment: GFP-14-3-3β co-IP with LC-MS/MS, untreated GFP-14-3-3β versus GFP control (14-3-3 interactome)
Type: binding, human
Details: log2 difference; pairwise comparison untreated vs GFP, label-free quantification, 3 replicates each

Row | Molecule | Difference (log2), untreated vs GFP
1 | B1 | -0.3409

Same assay, conditions: untreated vs GFP; LFQ intensities, replicates 1-3

Row | Molecule | Difference (log2), untreated vs GFP [log2]
2 | B2 | 2.403
3 | B3 | 0.6927
4 | B4 | 4.238
5 | B5 | 1.703
6 | B6 | 2.021
7 | B7 | 6.032
8 | B8 | -0.8949

Test system: GFP-14-3-3β and its binding proteins
Experiment: GFP-14-3-3β co-IP with LC-MS/MS label-free quantification, untreated versus PP1c-treated
Design: species or system human
Details: PP1 vs untreated; LFQ intensities, replicates 1-3

Row | Molecule | Difference (log2), PP1 vs untreated [log2]
9 | B2 | -1.121
10 | B3 | -1.189
11 | B4 | -1.071
12 | B5 | -1.185
13 | B6 | -1.1218
14 | B7 | -1.125
15 | B8 | -1.158

Same assay, conditions: log2 difference; pairwise comparison PP1 vs untreated, label-free quantification, 3 replicates each

Row | Molecule | Difference (log2), PP1 vs untreated
16 | B1 | 1.626
